We go through 36 molecules from US9296810 (Novartis, dated 2016).

In this assay the target is T1, hen egg white lysozyme (hen, UniProt P00698 19-147, biotinylated (HEL-b); sites not stated).
T1 construct: also called lyzozyme; HEL-b (biotinylated)
In words: yeast display selection.

T1 sequence (P00698 19-147 limits assumed): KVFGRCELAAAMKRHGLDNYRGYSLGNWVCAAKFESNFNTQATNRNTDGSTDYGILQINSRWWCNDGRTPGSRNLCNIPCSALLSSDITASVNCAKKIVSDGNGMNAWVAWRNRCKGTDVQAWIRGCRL

B1: SEQ ID NO 87 (designed binder)
chain: VSDVPRDLEVVAATPTSLLISWDAPAVTVRYYRITYGEAYGESYQEFTVPGSKSTATISQSPEYVDYTITVYAVTGRGESPASSKPISINYASEY
Turning to B1, the binding result is “binds”.

B2: SEQ ID NO 47 (designed binder)
chain: VSDVPRDLEVVAATPTSLLISWDAPAVTVRYYRITYGEERGYERSRQEFTVPGSKSTATISESYRYVDYTITVYAVTGRGESPASSKPISINYPHSY
Regarding B2, the binding result was “binds”.

B3: SEQ ID NO 48 (designed binder)
chain: VSDVPRDLEVVAATPTSLLISWDAPAVTVRYYRITYGEQSGLSEHQEFTVPGSKSTATISSLRYYVDYTITVYAVTGRGESPASSKPISINYAYEY
Take B3: the binding result is given as “binds”.

B4: SEQ ID NO 46 (designed binder)
chain: VSDVPRDLEVVAATPTSLLISWDAPAVTVRYYRITYGEYRSYRSERQEFTVPGSKSTATISRGYRAVDYTITVYAVTGRGESPASSKPISINYSYRY
As for B4, the binding result was “binds”.

B5: SEQ ID NO 90 (designed binder)
chain: VSDVPRDLEVVAATPTSLLISWDAPAVTVRYYRITYGEGERPYQEFTVPGSKSTATISYAHYSVDYTITVYAVTGRGESPASSKPISINYERRS
As to B5, the binding result is listed as “binds”.

B6: SEQ ID NO 93 (designed binder)
chain: VSDVPRDLEVVAATPTSLLISWDAPAVTVRYYRITYGEYPREYQEFTVPGSKSTATISRYGYHVDYTITVYAVTGRGESPASSKPISINYSGYS
Consider B6, for which the binding result is recorded as “binds”.

B7: SEQ ID NO 108 (designed binder)
chain: VSDVPRDLEVVAATPTSLLISWDAPAVTVRYYRITYGEPRRRYQEFTVPGSKSTATISPGGQSVDYTITVYAVTGRGESPASSKPISINYGRGY
Regarding B7, the binding result is on record as “binds”.

B8: SEQ ID NO 116 (designed binder)
chain: VSDVPRDLEVVAATPTSLLISWDAPTVTVRYYRITYGEPQASHRPYQEFTVPGSKSTATISSRSQSVDYTITVYAVTGRGESPASSKPISINYLREL
On to B8, for which the binding result is listed as “binds”.

B9: SEQ ID NO 110 (designed binder)
chain: VSDVPRDLEVVAATPTSLLISWDAPAVTVRYYRITYGESSGYAERGQEFTVPGSKSTATISSPGARVDYTITVYAVTGRGESPASSKPISINYSSLG
As to B9, the binding result is listed as “binds”.

B10: SEQ ID NO 113 (designed binder)
chain: VSDVPRDLEVVAATPTSLLISWDAPAVTVRYYRITYGERRGQYGSSQEFTVPGSKSTATISSPEGSVDYTITVYAVTGRGESPASSKPISINYSRSE
Take B10: the binding result was “binds”.

B11: SEQ ID NO 89 (designed binder)
chain: VSDVPRDLEVVAATPTSLLISWDAPAVTVRYYRITYGEGRHPSYQEFTVPGSKSTATISPSYSRVDYTITVYAVTGRGESPASSKPISINYSRER
Turning to B11, the binding result is on record as “binds”.

B12: SEQ ID NO 109 (designed binder)
chain: VSDVPRDLEVVAATTTSLLISWDAPAVTVRYYRITYGESGRGAQEFTVPGSKSTATISGLGPPVDYTITVYAVTGRGESPASSKPISINYRSQH
Regarding B12, the binding result is “binds”.

B13: SEQ ID NO 114 (designed binder)
chain: VSDVPRDLEVVAATPTSLLISWDAPAVTVRYYRITYGEQRYSYYGQQEFTVPGSKSTATISSGRSSVDYTITVYAVTGRGESPASSKPISINYRRSY
Regarding B13, the binding result was “binds”.

B14: SEQ ID NO 115 (designed binder)
chain: VSDVPRDLEVVAATPTSLLISWDAPAVTVRYYRITYGERPASYRAAQEFTVPGSKSTATISSYSYSVDYTITVYAVTGRGESPASSKPISINYRRSG
Regarding B14, the binding result is “binds”.

B15: SEQ ID NO 88 (designed binder)
chain: VSDVPRDLEVVAATPTSLLISWDAPAVTVRYYRITYGESSSSRRQEFTVPGSKSTATISGEESYVDYTITVYAVTGRGESPASSKPISINYAEER
With B15, the binding result was “binds”.

B16: SEQ ID NO 44 (designed binder)
chain: VSDVPRDLEVVAATPTSLLISWDAPAVTVRYYRITYGESSLGSEQEFTVPGSKSTATISEYAPYVDYTITVYAVTGRGESPASSKPISINYYGPG
As to B16, the binding result is recorded as “binds”.

B17: SEQ ID NO 111 (designed binder)
chain: VSDVPRDLEVVAATPTSLLISWDAPAVTVRYYRITYGESEGGSSRSQEFTVPGSKSTATISRSYQPVDYTITVYAVTGRGESPASSKPISINYGSYP
B17: the binding result is reported as “binds”.

B18: SEQ ID NO 94 (designed binder)
chain: VSDVPRDLEVVAATPTSLLISWDAPAVTVRYYRITYGEYEHYYQEFTVPGSKSTATISPYAGGVDYTITVYAVTGRGESPASSKPISINYSESE
As to B18, the binding result is given as “binds”.

B19: SEQ ID NO 45 (designed binder)
chain: VSDVPRDLEVVAATPTSLLISWDAPAVTVRYYRITYGEQAQEEGQEFTVPDSKSTATISAHRSYVDYTITVYAVTGRGESPASSKPISINYYYGE
Regarding B19, the binding result is on record as “binds”.

B20: SEQ ID NO 98 (designed binder)
chain: VSDVPRDLEVVAATPTSLLISWDAPAVTVRYYRITYGERSSRSQEFTVPGSKSTATISHSREPVDYTITVYAVTGRGESPASSKPISINYQYRY
Take B20: the binding result is “binds”.

B21: SEQ ID NO 99 (designed binder)
chain: VSDVPRDLEVVAATPTSLLISWDAPAVTVRYYRITYGESQSHSQEFTVPGSKSTATISHPSRPVDYTITVYAVTGRGESPASSKPISINYPRSE
With B21, the binding result is reported as “binds”.

B22: SEQ ID NO 101 (designed binder)
chain: VSDVPRDLEVVAATPTSLLISWDAPAVTVRYYRITYGEESSRPQEFTVPGSKSTATISQARARVDYTITVYAVTGRGESPASSKPISINYRRYR
B22: the binding result is reported as “binds”.

B23: SEQ ID NO 106 (designed binder)
chain: VSDVPRDLEVVAATPTSLLISWDAPAVTVRYYRITYGESGYRYQEFTVPGSKSTATISGYREHVDYTITVYAVTGRGESPASSKPISINYQESY
In the case of B23, the binding result was “binds”.

B24: SEQ ID NO 43 (designed binder)
chain: VSDVPRDLEVVAATPTSLLISWDAPAVTVRYYRITYGEEAYRSEGQEFTVPGSKSTATISSYGQGVDYTITVYAVTGRGESPASSKPISINYEGSE
On to B24, for which the binding result is listed as “binds”.

B25: SEQ ID NO 103 (designed binder)
chain: VSDVPRDLEVVAATPTSLLISWDAPAVTVRYYRITYGESREGGQEFTVPGSKSTATISSYQSEVDYTITVYAVTGRGESPASSKPISINYARSR
For the molecule B25, the binding result is “binds”.

B26: SEQ ID NO 104 (designed binder)
chain: VSDVPRDLEVVAATPTSLLISWDAPAVTVRYYRITYGEGQQGGQEFTVPGSKSTATISAYRGPVDYTITVYAVTGRGESPASSKPISINYYGSY
In the case of B26, the binding result is “binds”.

B27: SEQ ID NO 105 (designed binder)
chain: VSDVPRDLEVVAATPTSLLISWDAPAVTVRYYRITYGEGRRYGQEFTVPGSKSTATISELLSEVDYTITVYAVTGRGESPASSKPISINYSLRY
On to B27, for which the binding result is recorded as “binds”.

B28: SEQ ID NO 95 (designed binder)
chain: VSDVPRDLEVVAATPTSLLISWDAPAVTVRYYRITYGEYEYARQEFTVPGSKSTATISRLYRRVDYTITVYAVTGRGESPASSKPISINYYRSA
Regarding B28, the binding result is “binds”.

B29: SEQ ID NO 96 (designed binder)
chain: VSDVPRDLEVVAATPTSLLISWDAPAVTVRYYRITYGEYHYSEQEFTVPGSKSTATISYYEPRVDYTITVYAVTGRGESPASSKPISINYHSSR
B29: the binding result is given as “binds”.

B30: SEQ ID NO 92 (designed binder)
chain: VSDVPRDLEVVAATPTSLLISWDAPAVTVRYYRITYGEYERYRQEFTVPGSKSTATISSQSRYVDYTITVYAVTGRGESPASSKPISINYGRPA
Regarding B30, the binding result is “binds”.

B31: SEQ ID NO 97 (designed binder)
chain: VSDVPRDLEVVAATPTSLLISWDAPAVTVRYYRITYGEQRYLRQEFTVPGSKSTATISSRSARVDYTITVYAVTGRGESPASSKPISINYPYSA
As to B31, the binding result is listed as “binds”.

B32: SEQ ID NO 91 (designed binder)
chain: VSDVPRDLEVVAATPTSLLISWDAPAVTVRYYRITYGEYQRSRQEFTVPGSKSTATISSYGGYVDYTITVYAVTGRGESPASSKPISINYRSLR
For the molecule B32, the binding result was “binds”.

B33: SEQ ID NO 112 (designed binder)
chain: VSDVPRDLEVVAATPTSLLISWDAPAVTVRYYRITYGEQYYHQGRRQEFTVPGSKSTATISRYGGSVDYTITVYAVTGRGESPASSKPISINYYAYG
As for B33, the binding result is reported as “binds”.

B34: SEQ ID NO 100 (designed binder)
chain: VSDVPRDLEVVAATPTSLLISWDAPAVTVRYYRITYGEEEEHPQEFTVPGSKSTATISSPQRGVDYTITVYAVTGRGESPASSKPISINYYSYY
On to B34, for which the binding result is on record as “binds”.

B35: SEQ ID NO 107 (designed binder)
chain: VSDVPRDLEVVAATPTSLLISWDAPAVTVRYYRITYGESGRRGQEFTVPGSKSTATISSPSLEVDYTITVYAVTGRGESPASSKPISINYRSGY
With B35, the binding result is recorded as “binds”.

B36: SEQ ID NO 102 (designed binder)
chain: VSDVPRDLEVVAATPTSLLISWDAPAVTVRYYRITYGEYGALEQEFTVPGSKSTATISRSQAEVDYTITVYAVTGRGESPASSKPISINYASYY
As to B36, the binding result was “binds”.
